This data set has as its system CCCC[C@H](NC(=O)c1ccccc1)C(=O)N[C@@H](CCCCN)C(=O)N[C@@H](CCCNC(=N)N)C(=O)N[C@@H](CCCNC(=N)N)C(=O)Nc1ccc2c(C)cc(=O)oc2c1. The data set is described as follows: In vitro WNV protease assay with tetra-peptide substrate. Format: biochemical, West Nile virus. The note with it: other: tetra-peptide substrate; pH 9.5; 25.0 °C.

The values below come from publication PMC3568461.

As for “WNV NS2B-NS3 protease (West Nile virus strain NY-99)”, the Km amounted to 24.56 ± 1.43 µM.
